One test deals with T1, EphA2 SAM domain K945L (human, UniProt P29317 897-976, K945L).
T1 sequence (looked up): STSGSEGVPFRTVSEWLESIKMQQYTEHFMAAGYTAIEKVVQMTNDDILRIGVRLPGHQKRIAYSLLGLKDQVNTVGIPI
The test can be described thus: ITC. In general terms: In ITC the heat of successive injections is recorded.

The target of the next test is T2, EphA2 SAM domain Y960N (human, UniProt P29317 897-976, Y960N).
T2 sequence (looked up): T1 sequence (looked up) with L49K, Y64N
The test can be described thus: ITC.

Test [1] addresses T3, EphA2 SAM domain K945L/Y960N (human, UniProt P29317 897-976, K945L | Y960N).
T3 sequence (looked up): T1 sequence (looked up) with Y64N
The test can be described thus: ITC.

The next test deals with T4, EphA2 SAM domain R950E (human, UniProt P29317 897-976, R950E).
T4 sequence (looked up): T1 sequence (looked up) with L49K, R54E
The test can be described thus: ITC.

The target in a further test is T5, EphA1 SAM domain (human, UniProt P21709 906-976).
T5 sequence (looked up): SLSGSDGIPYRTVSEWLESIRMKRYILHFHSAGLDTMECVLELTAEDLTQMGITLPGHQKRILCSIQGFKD
The test can be described thus: ITC.

Test [2] concerns the target T6, EphA2 SAM domain (wild type) (human, UniProt P29317 897-976).
T6 sequence (looked up): T1 sequence (looked up) with L49K
The test can be described thus: NMR titration.

A further test concerns the target T7, EphA2 SAM domain K917D (human, UniProt P29317 897-976, K917D).
T7 sequence (looked up): T1 sequence (looked up) with K21D, L49K
The test can be described thus: ITC.

A further test addresses T8, EphA2 SAM domain K956E (human, UniProt P29317 897-976, K956E).
T8 sequence (looked up): T1 sequence (looked up) with L49K, K60E
The test can be described thus: ITC.

The target of test [3] is T6, EphA2 SAM domain (wild type). The test can be described thus: ITC.
The next test has as its target T9, EphA2 SAM domain K956D (human, UniProt P29317 897-976, K956D).
T9 sequence (looked up): T1 sequence (looked up) with L49K, K60D
The test can be described thus: ITC.

Another test has as its target T10, EphA2 SAM domain R950T (human, UniProt P29317 897-976, R950T).
T10 sequence (looked up): T1 sequence (looked up) with L49K, R54T
The test can be described thus: ITC.

Test [4] has as its target EphB2 SAM domain penta-mutant L954K/T959R/A961P/K966R/N969Y (human). The test can be described thus: ITC.

Substitutions are numbered along the chain they refer to.

B1: SHIP2 SAM domain (wild type) (domain or fragment, human, UniProt O15357 1192-1258, looked up)
chain: RASGLGEAGMSAWLRAIGLERYEEGLVHNGWDDLEFLSDITEEDLEEAGVQDPAHKRLLLDTLQLSK
In the case of B1, the Kd (usually the free concentration of one partner at which half of the binding sites on the other are occupied at equilibrium, for simple one-to-one binding) was 1.3 ± 0.2 µM with EphA2 SAM domain K945L; 3.1 ± 0.4 µM with EphA2 SAM domain Y960N; 1.6 ± 0.6 µM in test [1]; 1.7 ± 0.3 µM with EphA2 SAM domain R950E; 3.8 ± 0.4 µM with EphA1 SAM domain; around 10 µM in [2]. For the same molecule, the dissociation constant (Kd) was 9.1 ± 5.7 µM in the test with EphA2 SAM domain K917D; above 50 µM with EphA2 SAM domain K956E; 5.2 ± 1.2 µM in [3]; above 50 µM with EphA2 SAM domain K956D; 7.6 µM in test [4]. Also, the dH with EphA2 SAM domain K945L is -2.1 kcal/mol; in the test with EphA2 SAM domain Y960N, -3 kcal/mol; in test [1], -2 kcal/mol; with EphA2 SAM domain R950E, -2.4 kcal/mol; in the test with EphA1 SAM domain, -3.6 kcal/mol; with EphA2 SAM domain K917D, -0.85 kcal/mol. In [3], this molecule came in with a dH of -2.5 kcal/mol. For the same molecule, in the test with EphA2 SAM domain R950T, the “fold enhancement of the interaction against the wild-type pair” value was around 4 fold.

These data come from paper PMC3516615 (Structure (London, England : 1993), 2012).
